Residue numbers refer to the chain shown, from its start.
B1: NRP1-78 (VHH)
VHH: EVQLVESGGGLVQPGGSLRLSCAASGRTFRSYPMGWFRQAPGKEREWVASITSSATAYADSVKGRFTISADNSKNTAYLQMNSLKPEDTAVYYCALGPVRRSRLEWGQGTLVTVSS
B2: NRP1-96 (VHH)
VHH: EVQLVESGGGLVQPGGSLRLSCAASGLTYTMSWFRQAPGKEREFVAGFSGSGSVTSYADSVKGRFTISADNSKNTAYLQMNSLKPEDTAVYYCAAFDGYSGSDWGQGTLVTVSS
B3: NRP1-71 (VHH)
VHH: EVQLVESGGGLVQPGGSLRLSCAASGRTFSNAAMGWFRQAPGKERELVARITPGGNTNYADSVKGRFTISADNSKNTAYLQMNSLKPEDTAVYYCAARRIVNVEGAYRDWGQGTLVTVSS
B4: NRP1-46 (VHH)
VHH: B3 VHH with R27F, S30R, A32F, A33G, L47I, T52S, G54S, N58Y
B5: NRP1-100 (VHH)
VHH: B3 VHH with T28S, F29V, N31T, A32Y, A33G, R50S, T52S, P53R, G54F, N56R
B6: NRP1-59 (VHH)
VHH: B3 VHH with F29I, R50S, T52S, P53R, G54F, N56R
B7: NRP1-48 (VHH)
VHH: B3 VHH with R27F, S30R, A32F, A33G, P53G, N56S, N58A
B8: NRP1-51 (VHH)
VHH: B3 VHH with R27F, T28A, A32Y, A33H
B9: NRP1-77 (VHH)
VHH: B3 VHH with T28I, S30I, A32N, T52S, G54A, N56S, N58Y
B10: NRP1-65 (VHH)
VHH: B3 VHH with F29I, L47W, R50A, P53S, N56Y, N58H
B11: NRP1-85 (VHH)
VHH: EVQLVESGGGLVQPGGSLRLSCAASGSRFSGRFNILNMGWFRQAPGKERESVAAINWSGGTSTYYADSVKGRFTISADNSKNTAYLQMNSLKPEDTAVYYCAAGSNIGGSRWRYDWGQGTLVTVSS
B12: NRP1-79 (VHH)
VHH: EVQLVESGGGLVQPGGSLRLSCAASGRTYYAMGWFRQAPGKEREFVAAISWGGGLTVYADSVKGRFTISADNSKNTAYLQMNSLKPEDTAVYYCASSGWLTDYYYAMDVWGQGTLVTVSS
B13: NRP1-1 (VHH)
VHH: EVQLVESGGGLVQPGGSLRLSCAASGRTFRRYAMGWFRQAPGKEREFVASISRSGTLTRYADSVKGRFTISADNSKNTAYLQMNSLKPEDTAVYYCAAKTGAFSYGSLWWMSRAYNWGQGTLVTVSS
B14: NRP1-76 (VHH)
VHH: EVQLVESGGGLVQPGGSLRLSCAASGITFRRYAMGWFRQAPGKEREIVATIWWTFDAPYYADSVKGRFTISADNSKNTAYLQMNSLKPEDTAVYYCAAYQAGWGDWGQGTLVTVSS
B15: NRP1-61 (VHH)
VHH: B14 VHH with I27R, R30S, I47W, T50G, W52S, F55G, D56G, A57I, P58T, A101R
B16: NRP1-2 (VHH)
VHH: B14 VHH with I27G, R30T, R31K, Y32Q, A33T, I47F
B17: NRP1-72 (VHH)
VHH: B14 VHH with I27R, I47F, W52S, T54S, F55G, D56A, A57L, P58T, Y59H, A101R
B18: NRP1-74 (VHH)
VHH: B14 VHH with I27S, F29L, R31D, A33T, I47F
B19: NRP1-83 (VHH)
VHH: B14 VHH with I27S, T28I, F29G, R31E, Y32V, I47L
B20: NRP1-37 (VHH)
VHH: EVQLVESGGGLVQPGGSLRLSCAASGRTFSIYAMGWFRQAPGKERELVAAISRTGGSTYYADSVKGRFTISADNSKNTAYLQMNSLKPEDTAVYYCAADRMYRPVGNQYDWGQGTLVTVSS
B21: NRP1-81 (VHH)
VHH: B20 VHH with T28S, F29S, S30R, I31Y, L47F, S52R, R53W, G56M, S57N, Y59H
B22: NRP1-75 (VHH)
VHH: B20 VHH with F29I, I31V, S52N, T54S, G56K
B23: NRP1-106 (VHH)
VHH: B20 VHH with D99R, M101I, Y102V, R103N, P104V, V105E, N107A, Q108Y, Y109R
B24: NRP1-114 (VHH)
VHH: B20 VHH with T28S, F29S, S30R, I31Y, L47F, S52R, R53W, T54S, S57T, Y59F
B25: NRP1-47 (VHH)
VHH: B20 VHH with T28S, F29S, S30R, I31Y, L47F, S52K, R53W, T54S, G56T
B26: NRP1-86 (VHH)
VHH: EVQLVESGGGLVQPGGSLRLSCAASGNIFINNAMGWFRQAPGKERELVAAITSSSGRRWYADSVKGRFTISADNSKNTAYLQMNSLKPEDTAVYYCAADRMYRPVGNQYDWGQGTLVTVSS
B27: NRP1-99 (VHH)
VHH: B20 VHH with F29S, S30N, L47F, T54S, S57L, T58K, Y59S
B28: NRP1-7 (VHH)
VHH: EVQLVESGGGLVQPGGSLRLSCAASGRIFIIYAMGWFRQAPGKERELVAAITRTGGRPCYADSVKGRFTISADNSKNTAYLQMNSLKPEDTAVYYCAARRMLSPEGAHPDWGQGTLVTVSS
B29: NRP1-80 (VHH)
VHH: EVQLVESGGGLVQPGGSLRLSCAASGSIDRINAMGWFRQAPGKEREFVASIWWTFDAPYYADSVKGRFTISADNSKNTAYLQMNSLKPEDTAVYYCATWTTTWGRNRDWGQGTLVTVSS

Molecular target: T1, neuropilin-1 (NRP1) on HEK293 cells overexpressing NRP1 (UniProt O14786 22-923, limits assumed)
T1 construct: whole, on cells
Test: flow cytometry, HEK293-NRP1 vs HEK293

Binder | 100 nM FACS (MFI Ratio)
B1 | 3.6
B2 | 1.4
B3 | 0.4
B4 | 2.2
B5 | 0.6
B6 | 0.4
B7 | 0.7
B8 | 0.8
B9 | 4.9
B10 | 0.7
B11 | 5
B12 | 13.2
B13 | 15.4
B14 | 3.1
B15 | 0.9
B16 | 15.7
B17 | 3
B18 | 5.8
B19 | 6.9
B20 | 8.8
B21 | 5
B22 | 4.2
B23 | 2.2
B24 | 8.7
B25 | 6.6
B26 | 2.4
B27 | 0.8
B28 | 233
B29 | 6.9
